Biological target: recombinant human NPR3 protein, extracellular domain amino acids Gly27-Ser482 fused to the Fc portion of mouse IgG2a at the NPR3 C-terminus (human; mouse) (UniProt P17342)
Experiment: ELISA-based blocking assay on coated hNPR3-mFc, competitor biotin-hANP 200 pM; categorized as a non-blocker

Sequence of UniProt P17342 (P17342 27-482 limits assumed): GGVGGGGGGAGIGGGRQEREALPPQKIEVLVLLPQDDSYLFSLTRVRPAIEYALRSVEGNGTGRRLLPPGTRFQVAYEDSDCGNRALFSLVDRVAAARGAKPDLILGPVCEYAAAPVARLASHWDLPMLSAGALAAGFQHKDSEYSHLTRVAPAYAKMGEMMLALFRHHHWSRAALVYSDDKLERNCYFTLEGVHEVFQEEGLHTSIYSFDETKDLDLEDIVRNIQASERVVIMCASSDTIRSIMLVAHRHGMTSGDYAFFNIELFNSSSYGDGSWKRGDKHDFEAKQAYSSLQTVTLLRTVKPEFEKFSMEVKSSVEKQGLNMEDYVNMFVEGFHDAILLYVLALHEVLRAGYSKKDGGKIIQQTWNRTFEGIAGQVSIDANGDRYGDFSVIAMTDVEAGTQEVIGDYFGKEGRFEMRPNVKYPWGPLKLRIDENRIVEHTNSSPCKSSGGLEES

non-binding human IgG1 isotype control antibody (ELISA blocking assay)
percent blockade: 32%
